The chains are these.
T1: human CD123 (human, UniProt P26951 19-305, limits assumed)
T1 construct: Construct on the chip is not described; also called CD123 chip
T1 sequence (looked up): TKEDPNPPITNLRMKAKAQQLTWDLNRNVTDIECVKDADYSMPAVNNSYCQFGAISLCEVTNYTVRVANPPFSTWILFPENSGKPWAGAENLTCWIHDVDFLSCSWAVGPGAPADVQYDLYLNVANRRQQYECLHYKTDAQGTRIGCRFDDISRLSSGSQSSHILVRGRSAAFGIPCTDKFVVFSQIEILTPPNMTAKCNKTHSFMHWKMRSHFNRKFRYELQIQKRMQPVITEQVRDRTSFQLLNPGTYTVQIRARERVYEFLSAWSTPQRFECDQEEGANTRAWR

B1: 13961 7G3_H1.107_L1_Fab_His (Fab, V domains shown)
VH: QVQLQQSGAEVKKPGASVKVSCKASGYTFTDYYMKWVRQAPGQSLEWMGDIIPSNGATFYNQKFKGKATLTVDRSTSTAYMELSSLRSEDTAVYYCARSHLLRASWFAYWGQGTLVTVSS
VL: DFVMTQSPDSLAVSLGERATINCKSSQSLLNSGNQKNYLTWYQQKPGQPPKLLIYWASTRESGVPDRFTGSGSGTDFTLTISSLQAEDVAVYYCQNDYSYPYTFGGGTKLEIKR
notes: also called XENP13961
B2: 13965 7G3_H1.107_L1.57_Fab_His (Fab, V domains shown)
VH: QVQLQQSGAEVKKPGASVKVSCKASGYTFTDYYMKWVRQAPGQSLEWMGDIIPSNGATFYNQKFKGKATLTVDRSTSTAYMELSSLRSEDTAVYYCARSHLLRASWFAYWGQGTLVTVSS
VL: DFVMTQSPDSLAVSLGERATINCKSSQSLLNTGNQKNYLTWYQQKPGQPPKLLIYWASTRESGVPDRFTGSGSGTDFTLTISSLQAEDVAVYYCQNDYSYPYTFGGGTKLEIKR
notes: also called XENP13965
B3: 13963 7G3_H1.109_L1_Fab_His (Fab, V domains shown)
VH: QVQLQQSGAEVKKPGASVKVSCKASGYTFTDYYMKWVKQSHGKSLEWMGDIIPSNGATFYNQKFKGKATLTVDRSTSTAYMELSSLRSEDTAVYYCARSHLLRASWFAYWGQGTLVTVSS
VL: DFVMTQSPDSLAVSLGERATINCKSSQSLLNSGNQKNYLTWYQQKPGQPPKLLIYWASTRESGVPDRFTGSGSGTDFTLTISSLQAEDVAVYYCQNDYSYPYTFGGGTKLEIKR
notes: also called XENP13963
B4: 13735 7G3_H1.86_L1_Fab_His (Fab, V domains shown)
VH: QVQLVQSGAEVKKPGASVKVSCKASGYTFTDYYMKWVRQAPGQSLEWMGDIIPSNGATFYNQKFKGKATLTVDRSTSTAYMELSSLRSEDTAVYYCTRSHLLRASWFAYWGQGTLVTVSS
VL: DFVMTQSPDSLAVSLGERATINCKSSQSLLNSGNQKNYLTWYQQKPGQPPKLLIYWASTRESGVPDRFTGSGSGTDFTLTISSLQAEDVAVYYCQNDYSYPYTFGGGTKLEIKR
notes: also called XENP13735; copies: 1 + 1
B5: 13740 7G3_H1.91_L1_Fab_His (Fab, V domains shown)
VH: QVQLVQSGAEVKKPGASVKVSCKASGYTFTDYYMKWVRQAPGQSLEWMGDIIPSNGATFYNQKFQGRVTMTVDRSTSTAYMHLSSLRSEDTAVYYCTRSHLLRASWFAYWGQGTLVTVSS
VL: DFVMTQSPDSLAVSLGERATINCKSSQSLLNSGNQKNYLTWYQQKPGQPPKLLIYWASTRESGVPDRFTGSGSGTDFTLTISSLQAEDVAVYYCQNDYSYPYTFGGGTKLEIKR
notes: also called XENP13740; copies: 1 + 1
B6: 13741 7G3_H1.92_L1_Fab_His (Fab, V domains shown)
VH: QVQLVQSGAEVKKPGASVKVSCKASGYTFTDYYMKWVRQAPGQSLEWMGDIIPSNGATFYNQKFQGRVTMTVDRSTSTAYMELSSLTSEDTAVYYCTRSHLLRASWFAYWGQGTLVTVSS
VL: DFVMTQSPDSLAVSLGERATINCKSSQSLLNSGNQKNYLTWYQQKPGQPPKLLIYWASTRESGVPDRFTGSGSGTDFTLTISSLQAEDVAVYYCQNDYSYPYTFGGGTKLEIKR
notes: also called XENP13741; copies: 1 + 1
B7: 13855 7G3_H1_L1.57_Fab_His (Fab, V domains shown)
VH: QVQLVQSGAEVKKPGASVKVSCKASGYTFTDYYMKWVRQAPGQSLEWMGDIIPSNGATFYNQKFQGRVTMTVDRSTSTAYMELSSLRSEDTAVYYCTRSHLLRASWFAYWGQGTLVTVSS
VL: DFVMTQSPDSLAVSLGERATINCKSSQSLLNTGNQKNYLTWYQQKPGQPPKLLIYWASTRESGVPDRFTGSGSGTDFTLTISSLQAEDVAVYYCQNDYSYPYTFGGGTKLEIKR
notes: also called XENP13855
B8: 13743 7G3_H1.94_L1_Fab_His (Fab, V domains shown)
VH: QVQLVQSGAEVKKPGASVKVSCKASGYTFTDYYMKWVKQSHGKSLEWMGDIIPSNGATFYNQKFQGRVTMTVDRSTSTAYMELSSLRSEDTAVYYCTRSHLLRASWFAYWGQGTLVTVSS
VL: DFVMTQSPDSLAVSLGERATINCKSSQSLLNSGNQKNYLTWYQQKPGQPPKLLIYWASTRESGVPDRFTGSGSGTDFTLTISSLQAEDVAVYYCQNDYSYPYTFGGGTKLEIKR
notes: also called XENP13743; copies: 1 + 1
B9: 13738 7G3_H1.89_L1_Fab_His (Fab, V domains shown)
VH: QVQLVQSGAEVKKPGASVKVSCKASGYTFTDYYMKWVRQAPGQSLEWIGDIIPSNGATFYNQKFQGRVTMTVDRSTSTAYMELSSLRSEDTAVYYCTRSHLLRASWFAYWGQGTLVTVSS
VL: DFVMTQSPDSLAVSLGERATINCKSSQSLLNSGNQKNYLTWYQQKPGQPPKLLIYWASTRESGVPDRFTGSGSGTDFTLTISSLQAEDVAVYYCQNDYSYPYTFGGGTKLEIKR
notes: also called XENP13738; copies: 1 + 1
B10: 13737 7G3_H1.88_L1_Fab_His (Fab, V domains shown)
VH: QVQLVQSGAEVKKPGASVKVSCKASGYTFTDYYMKWVRQAHGQSLEWMGDIIPSNGATFYNQKFQGRVTMTVDRSTSTAYMELSSLRSEDTAVYYCTRSHLLRASWFAYWGQGTLVTVSS
VL: DFVMTQSPDSLAVSLGERATINCKSSQSLLNSGNQKNYLTWYQQKPGQPPKLLIYWASTRESGVPDRFTGSGSGTDFTLTISSLQAEDVAVYYCQNDYSYPYTFGGGTKLEIKR
notes: also called XENP13737; copies: 1 + 1
B11: XENP13677 (bispecific antibody)
HC 1 (Fab-Fc): QVQLVQSGAEVKKPGASVKVSCKASGYTFTSYNMHWVRQAPGQRLEWMGAIYPGNGATSYSQKFQGRVTITADTSASTAYMELSSLRSEDTAVYYCARSYYMGGDWYFDVWGAGTLVTVSSASTKGPSVFPLAPSSKSTSGGTAALGCLVKDYFPEPVTVSWNSGALTSGVHTFPAVLQSSGLYSLSSVVTVPSSSLGTQTYICNVNHKPSDTKVDKKVEPKSCDKTHTCPPCPAPPVAGPSVFLFPPKPKDTLMISRTPEVTCVVVDVKHEDPEVKFNWYVDGVEVHNAKTKPREEEYNSTYRVVSVLTVLHQDWLNGKEYKCKVSNKALPAPIEKTISKAKGQPREPQVYTLPPSREEMTKNQVSLTCDVSGFYPSDIAVEWESDGQPENNYKTTPPVLDSDGSFFLYSKLTVDKSRWEQGDVFSCSVMHEALHNHYTQKSLSLSPGK
HC 2 (scFv-Fc): not shown
light: QIVLTQSPSSLSASVGDRVTITCRASWSVSYIHWFQQKPGKSPKPLIYATSNLASGVPVRFSGSGSGTDYTLTISSLQPEDFATYYCQQWTHNPPTFGGGTKVEIKRTVAAPSVFIFPPSDEQLKSGTASVVCLLNNFYPREAKVQWKVDNALQSGNSQESVTEQDSKDSTYSLSSTLTLSKADYEKHKVYACEVTHQGLSSPVTKSFNRGEC
notes: anti-CD3 scFv H1.30_L1.47; also called Anti-CD20 (C2B8_H1.202_L1.113) x Anti-CD3 (H1.30_L1.47) Fab-scFv-Fc

One test addresses T1, human CD123. The test is described as follows: Biacore, Fab-His on CD123 (Example 3; the sheet names no assay).
B1 registered a Ka of 6.79e+09 M⁻¹, a Kd of 0.147 nM, a koff of 8.84e-05 s⁻¹ and a kon of 600000 M⁻¹ s⁻¹.

On to B2, for which the Ka was found to be 1.6e+10 M⁻¹, the Kd stood at 0.0624 nM, the koff was 3.82e-05 s⁻¹ and the kon worked out at 612000 M⁻¹ s⁻¹. The molecule B3 yielded a Ka of 1.35e+10 M⁻¹, a Kd of 0.0742 nM, a koff of 5.53e-05 s⁻¹ and a kon of 745000 M⁻¹ s⁻¹.

The next test deals with T1, human CD123. The test can be described thus: off-rate screen of Fab-His on a Biacore CD123 chip (Example 3), relative to 7G3 H1L1 Fab.
As for B4, the “Fold improvement in off-rate vs. H1L1” value worked out at 4.61 fold.

Take B5: the “Fold improvement in off-rate vs. H1L1” value came to 1.04 fold. Same read-out and setting: for B6 the value was 1.89 fold; for B7, 0.84 fold. Same read-out and setting: with B8 the figure was 0.65 fold; with B9, 1.29 fold; with B10, 0.96 fold.

In a further test the target is T2, human CD3 (human, UniProt P07766 23-126; P04234 22-105).
T2 construct: The legend says only human CD3
T2 sequence (P07766 23-126, chain 1 of 2): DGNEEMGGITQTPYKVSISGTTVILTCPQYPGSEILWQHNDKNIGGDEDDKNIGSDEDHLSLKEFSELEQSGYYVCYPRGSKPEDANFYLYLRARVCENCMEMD
T2 sequence (P04234 22-105, chain 2 of 2): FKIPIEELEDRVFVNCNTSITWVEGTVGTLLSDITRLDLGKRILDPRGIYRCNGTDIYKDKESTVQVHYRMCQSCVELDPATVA
The test is described as follows: SPR; human CD3-Fc (printed 'CD388-Fc', Sino Biological) covalently bound to the chip; test article passed over at 3.125, 12.5, 50 and 200 nM.
In the case of B11, the Kd was determined as 4.9 nM.

A further test deals with T3, cyno CD3 (cynomolgus monkey, UniProt Q95LI5 22-117; Q95LI8 22-105).
T3 construct: The legend says only cyno CD3; also called cynomolgus monkey CD3
T3 sequence (Q95LI5 22-117, form in doubt, chain 1 of 2): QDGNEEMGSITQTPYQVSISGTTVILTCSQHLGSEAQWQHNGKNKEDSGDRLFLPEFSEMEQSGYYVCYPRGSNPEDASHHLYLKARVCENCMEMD
T3 sequence (Q95LI8 22-105, form in doubt, chain 2 of 2): as the sequence (P04234 22-105, chain 2 of 2) above, with I5V, N15K, I20V, S32T, D33N, I34N, T64A, S74N, V83L counted along it
The test is described as follows: SPR; cynomolgus monkey CD3-Fc (printed 'CD388-Fc', Sino Biological) covalently bound to the chip; test article passed over at 3.125, 12.5, 50 and 200 nM.
B11 returned a Kd of 5.6 nM.

Values taken from US20250109215A1 (Xencor, published 2025).
